From publication PMC11929599

Key:
Test in all cases: two-hybrid
[1] = biological target: SePdx Q214A fused to T25 (pKT25‐SePdx Q214A) (Synechococcus elongatus PCC 7942)
[2] = biological target: SePdx Y31A fused to T25 (pKT25‐SePdx Y31A) (Synechococcus elongatus PCC 7942)
[3] = biological target: SePdx D28A fused to T25 (pKT25‐SePdx D28A) (Synechococcus elongatus PCC 7942)
[4] = biological target: SePdx R189A fused to T25 (pKT25‐SePdx R189A) (Synechococcus elongatus PCC 7942)
[5] = biological target: SePdx R96A fused to T25 (pKT25‐SePdx R96A) (Synechococcus elongatus PCC 7942)
[6] = biological target: SePdx Y144A fused to T25 (pKT25‐SePdx Y144A) (Synechococcus elongatus PCC 7942)
[7] = biological target: SePdx T5A fused to T25 (pKT25‐SePdx T5A) (Synechococcus elongatus PCC 7942)
[8] = biological target: SePdx G299A fused to T25 (pKT25‐SePdx G299A) (Synechococcus elongatus PCC 7942)

Row | Substance | decrease of β‐galactosidase activity against WT SePdx [1] [%] | decrease of β‐galactosidase activity against WT SePdx [2] [%] | decrease of β‐galactosidase activity against WT SePdx [3] [%] | decrease of β‐galactosidase activity against WT SePdx [4] [%] | decrease of β‐galactosidase activity against WT SePdx [5] [%] | decrease of β‐galactosidase activity against WT SePdx [6] [%] | increase of β‐galactosidase activity against WT SePdx [7] [%] | decrease of β‐galactosidase activity against WT SePdx [8] [%]
1 | CpcA1 fused to T18C (pUT18C) (from UniProt P13530 1-163) (natural protein) | 40.3 | 46.3 | 67.6 | 60.8 | 65.1 | – | – | –
2 | PSI core protein PsaE fused to T18C (pUT18C) (from UniProt Q31NL7 1-75) (natural protein) | – | – | – | – | – | 27.2 | 3.19 | 12.2
